IntAct's records for PubMed 35512704

B1: Mothers against decapentaplegic homolog 4 (Homo sapiens), Q13485 (parent)
chain: MDNMSITNTPTSNDACLSIVHSLMCHRQGGESETFAKRAIESLVKKLKEKKDELDSLITAITTNGAHPSKCVTIQRTLDGRLQVAGRKGFPHVIYARLWRWPDLHKNELKHVKYCQYAFDLKCDSVCVNPYHYERVVSPGIDLSGLTLQSNAPSSMMVKDEYVHDFEGQPSLSTEGHSIQTIQHPPSNRASTETYSTPALLAPSESNATSTANFPNIPVASTSQPASILGGSHSEGLLQIASGPQPGQQQNGFTGQPATYHHNSTTTWTGSRTAPYTPNLPHHQNGHLQHHPPMPPHPGHYWPVHNELAFQPPISNHPAPEYWCSIAYFEMDVQVGETFKVPSSCPIVTVDGYVDPSGGDRFCLGQLSNVHRTEAIERARLHIGKGVQLECKGEGDVWVRCLSDHAVFVQSYYLDREAGRAPGDAVHKIYPSAYIKVFDLRQCHRQMQQQAATAQAAAAAQAAAVAGNIPGPGSVGGIAPAISLSAAAGIGVDDLRRLCILRMSFVKGWGPDYPRQSIKETPCWIEIHLHRALQLLDEVLHTMPIADPQPLD
partner: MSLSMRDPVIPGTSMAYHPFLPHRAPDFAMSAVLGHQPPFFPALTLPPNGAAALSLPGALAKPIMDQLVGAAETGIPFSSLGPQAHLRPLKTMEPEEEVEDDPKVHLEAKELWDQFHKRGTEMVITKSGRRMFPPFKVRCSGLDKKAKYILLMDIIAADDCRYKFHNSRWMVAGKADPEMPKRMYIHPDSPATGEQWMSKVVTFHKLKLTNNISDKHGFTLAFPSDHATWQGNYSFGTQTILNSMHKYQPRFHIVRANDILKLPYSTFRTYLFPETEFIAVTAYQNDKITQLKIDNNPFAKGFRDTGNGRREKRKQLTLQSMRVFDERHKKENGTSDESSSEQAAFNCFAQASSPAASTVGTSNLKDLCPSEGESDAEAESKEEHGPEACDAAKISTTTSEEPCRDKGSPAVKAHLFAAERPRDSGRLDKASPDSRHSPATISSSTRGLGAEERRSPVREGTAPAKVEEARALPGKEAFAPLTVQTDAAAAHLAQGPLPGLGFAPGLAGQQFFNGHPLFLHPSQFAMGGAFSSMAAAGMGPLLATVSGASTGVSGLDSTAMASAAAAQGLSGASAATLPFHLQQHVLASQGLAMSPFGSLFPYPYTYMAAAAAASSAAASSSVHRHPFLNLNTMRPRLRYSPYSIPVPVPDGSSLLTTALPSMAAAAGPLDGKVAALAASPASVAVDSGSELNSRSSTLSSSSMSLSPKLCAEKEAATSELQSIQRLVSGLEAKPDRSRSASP
B2: Mothers against decapentaplegic homolog 4 (Homo sapiens), Q13485 (parent)
chain: B1 chain
partner: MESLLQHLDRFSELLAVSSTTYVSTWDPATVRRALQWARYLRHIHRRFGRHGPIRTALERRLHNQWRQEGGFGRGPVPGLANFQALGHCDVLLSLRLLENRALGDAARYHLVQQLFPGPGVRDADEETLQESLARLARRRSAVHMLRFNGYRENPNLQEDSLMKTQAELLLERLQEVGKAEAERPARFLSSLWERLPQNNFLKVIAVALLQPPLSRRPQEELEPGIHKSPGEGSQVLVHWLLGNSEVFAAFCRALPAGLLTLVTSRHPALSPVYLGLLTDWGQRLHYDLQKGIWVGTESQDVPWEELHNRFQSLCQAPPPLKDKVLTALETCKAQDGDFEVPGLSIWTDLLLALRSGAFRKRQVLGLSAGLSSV
B3: Mothers against decapentaplegic homolog 4 (Homo sapiens), Q13485 (parent)
chain: B1 chain
partner: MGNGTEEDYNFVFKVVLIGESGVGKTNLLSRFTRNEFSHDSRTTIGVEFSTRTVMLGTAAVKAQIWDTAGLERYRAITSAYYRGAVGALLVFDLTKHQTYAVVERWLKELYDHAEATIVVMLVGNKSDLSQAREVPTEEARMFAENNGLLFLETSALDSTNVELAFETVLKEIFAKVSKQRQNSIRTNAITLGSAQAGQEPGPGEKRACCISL
B4: Mothers against decapentaplegic homolog 4 (Homo sapiens), Q13485 (parent)
chain: B1 chain
partner: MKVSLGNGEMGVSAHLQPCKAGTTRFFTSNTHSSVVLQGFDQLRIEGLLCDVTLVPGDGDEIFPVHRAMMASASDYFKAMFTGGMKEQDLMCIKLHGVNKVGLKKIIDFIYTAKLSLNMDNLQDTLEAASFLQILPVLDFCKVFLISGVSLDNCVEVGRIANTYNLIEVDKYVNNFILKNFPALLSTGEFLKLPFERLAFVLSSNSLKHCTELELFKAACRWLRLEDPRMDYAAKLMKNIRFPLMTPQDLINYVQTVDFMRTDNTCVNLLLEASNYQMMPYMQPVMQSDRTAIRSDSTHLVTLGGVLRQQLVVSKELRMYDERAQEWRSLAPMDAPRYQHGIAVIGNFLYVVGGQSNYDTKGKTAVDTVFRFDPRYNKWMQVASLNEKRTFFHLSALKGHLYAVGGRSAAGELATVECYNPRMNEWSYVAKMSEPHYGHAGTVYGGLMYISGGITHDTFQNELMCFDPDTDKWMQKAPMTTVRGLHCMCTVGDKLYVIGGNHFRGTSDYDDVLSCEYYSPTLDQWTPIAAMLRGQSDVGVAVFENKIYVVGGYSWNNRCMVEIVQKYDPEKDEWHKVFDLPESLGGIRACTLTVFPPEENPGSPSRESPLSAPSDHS
B5: Mothers against decapentaplegic homolog 4 (Homo sapiens), Q13485 (parent)
chain: B1 chain
partner: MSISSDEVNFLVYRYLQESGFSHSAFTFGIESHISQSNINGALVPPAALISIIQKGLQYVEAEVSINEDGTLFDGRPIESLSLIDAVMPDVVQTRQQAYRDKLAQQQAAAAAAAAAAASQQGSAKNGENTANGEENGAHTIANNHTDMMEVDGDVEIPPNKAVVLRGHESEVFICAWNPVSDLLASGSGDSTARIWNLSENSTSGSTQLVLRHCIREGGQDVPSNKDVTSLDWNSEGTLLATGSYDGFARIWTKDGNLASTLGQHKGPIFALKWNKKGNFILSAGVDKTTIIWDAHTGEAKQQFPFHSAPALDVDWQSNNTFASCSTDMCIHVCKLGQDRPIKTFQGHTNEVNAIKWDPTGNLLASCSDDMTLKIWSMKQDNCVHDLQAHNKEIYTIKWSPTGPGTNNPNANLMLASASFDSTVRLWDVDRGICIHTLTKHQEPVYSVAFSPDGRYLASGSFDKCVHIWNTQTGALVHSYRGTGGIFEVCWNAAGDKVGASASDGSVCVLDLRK
B6: Mothers against decapentaplegic homolog 4 (Homo sapiens), Q13485 (parent)
chain: B1 chain
partner: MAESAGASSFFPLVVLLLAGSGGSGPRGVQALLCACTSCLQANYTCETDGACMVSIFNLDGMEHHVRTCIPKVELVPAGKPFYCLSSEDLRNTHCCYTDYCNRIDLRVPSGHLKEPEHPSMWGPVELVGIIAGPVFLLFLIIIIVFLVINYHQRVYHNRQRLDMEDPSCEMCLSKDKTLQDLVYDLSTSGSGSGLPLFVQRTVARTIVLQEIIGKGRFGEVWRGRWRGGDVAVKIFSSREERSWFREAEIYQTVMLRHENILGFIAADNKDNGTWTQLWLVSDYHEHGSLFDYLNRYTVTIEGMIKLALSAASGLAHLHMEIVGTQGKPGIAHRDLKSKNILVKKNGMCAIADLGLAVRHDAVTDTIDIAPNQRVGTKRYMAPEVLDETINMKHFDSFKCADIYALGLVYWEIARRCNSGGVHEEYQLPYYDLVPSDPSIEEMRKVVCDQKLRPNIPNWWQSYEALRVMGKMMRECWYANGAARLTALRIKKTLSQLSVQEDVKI

Variants of: B1
Conditions: with tbx3_human TBX3, O15119

effect of a mutation on the interaction	Variant
with no effect	R361H

Variants of: B2
Conditions: with fancf_human FANCF

effect of a mutation on the interaction	Variant
with no effect	G386D

Variants of: B3
Conditions: with rab25_human RAB25, P57735

effect of a mutation on the interaction	Variant
with no effect	G386D

Variants of: B4
Conditions: with klhl9_human KLHL9, Q9P2J3

effect of a mutation on the interaction	Variant
with no effect	G386D

Variants of: B4
Conditions: with klhl9_human KLHL9, Q9P2J3
Remark: another data set of the same source

effect of a mutation on the interaction	Variant
increasing interaction strength	G386D

Variants of: B5
Conditions: with tbl1r_human TBL1XR1, Q9BZK7

effect of a mutation on the interaction	Variant
with no effect	G386D

Variants of: B6
Conditions: with acv1b_human ACVR1B

effect of a mutation on the interaction	Variant
with no effect	G386D

Variants of: B6
Conditions: with acv1b_human ACVR1B
Remark: another data set of the same source

effect of a mutation on the interaction	Variant
increasing interaction strength	G386D
